US20230094162A1 (MacroGenics, published 2023)
Each block holds one binder with its values, some of them ahead of it.

Legend:
[1] = biological target: T1, PD-L1 expressed on the cell surface (CHO/PD-L1 cells) (UniProt Q9NZQ7 19-290); experiment: cell-based or functional assay
[2] = biological target: T1, PD-L1 expressed on the cell surface …; experiment: cell-based or functional assay; remark: listed apart in the source
[3] = biological target: T1, PD-L1 expressed on the cell surface …; experiment: flow cytometry (FACS) on CHO cells expressing PD-L1, MFI
Experimental: (§1) FACS analysis to evaluate the test articles for binding to cell surface PD-L1 was performed essentially as follows: 100 μL of CHO cells expressing PD-L1 (CHO/PD-L1) (1.0×10⁵ to 1.0×10⁶ cells/well) and 100 μL of serially diluted test article was added to each well of microtiter assay plate(s), mixed and incubated at RT for about 30 min. The cells were washed with FACS Buffer and secondary antibody (goat anti-human-FITC, PE, or APC) was then added to each well, after which, the components were mixed and the wells were incubated at RT for about 30 min. Cells were washed and resuspended in 250 μL FACS Buffer and analyzed by flow cytometry (BD LSR Fortessa or FACSCanto II) for cell events collection. Data analysis were performed via FloJo v10.
Test articles were used at 10 μg/mL and five-fold serial dilutions for the FACS analysis and at 50 μg/mL and five-fold serial dilutions for the PD-L1 reporter assay.

[4] = biological target: T1, PD-L1 expressed on the cell surface …; experiment: flow cytometry (FACS) on JIMT-1 cells (PD-L1 positive), MFI
[5] = biological target: T2, soluble PD-L1 fused to a His tag (shPD-L1) (UniProt Q9NZQ7 19-238, limits assumed); experiment: ELISA on plate-coated shPD-L1
T2 construct: the species of shPD-L1 is not written out; also called shPD-L1-his; not shown: His tag
T2 sequence (Q9NZQ7 19-238 limits assumed): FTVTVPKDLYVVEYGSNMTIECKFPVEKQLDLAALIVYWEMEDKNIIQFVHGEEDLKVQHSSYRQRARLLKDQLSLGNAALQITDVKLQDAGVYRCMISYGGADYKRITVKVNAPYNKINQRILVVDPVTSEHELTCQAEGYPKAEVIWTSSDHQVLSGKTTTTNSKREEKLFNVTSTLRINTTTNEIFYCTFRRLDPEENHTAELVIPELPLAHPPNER
Experimental: For the hybridoma supernatants anti-CD137 antibody was utilized at 1.0 μg/mL and six three-fold serial dilutions. The amount of test article binding to the immobilized CD137 (human or cynomolgus monkey) was assessed using a goat anti-mouse IgG-HRP secondary antibody. All samples were analyzed on a plate reader (Victor 2 Wallac, Perkin Elmer) and EC50 values were calculated from dose-response curves by nonlinear regression analysis.
The binding of antibodies comprising these substitutions were evaluated for binding to a soluble PD-L1- fused to a His tag (shPD-L1) using an ELISA assay essentially as described above for CD137 binding except the plates were coated with shPD-L1 at 0.5 μg/mL and a goat anti-human IgG-HRP secondary antibody was used.

[6] = biological target: T1, PD-L1 expressed on the cell surface …; experiment: cell-based or functional assay; remark: listed apart in the source
[7] = biological target: T1, PD-L1 expressed on the cell surface …; experiment: cell-based or functional assay; remark: listed apart in the source
[8] = biological target: T1, PD-L1 expressed on the cell surface …; experiment: flow cytometry (FACS) on CHO cells expressing PD-L1, MFI; remark: listed apart in the source
Experimental: as §1

[9] = biological target: T3, CD137 expressed on the cell surface (CHO/CD137 cells) (UniProt Q07011 24-255, limits assumed); experiment: flow cytometry (FACS) on CHO cells expressing CD137, MFI
T3 construct: whole, on cells; also called cell surface CD137; Jurkat-NF-κB-Luc reporter cells overexpressing CD137
T3 sequence (Q07011 24-255 limits assumed): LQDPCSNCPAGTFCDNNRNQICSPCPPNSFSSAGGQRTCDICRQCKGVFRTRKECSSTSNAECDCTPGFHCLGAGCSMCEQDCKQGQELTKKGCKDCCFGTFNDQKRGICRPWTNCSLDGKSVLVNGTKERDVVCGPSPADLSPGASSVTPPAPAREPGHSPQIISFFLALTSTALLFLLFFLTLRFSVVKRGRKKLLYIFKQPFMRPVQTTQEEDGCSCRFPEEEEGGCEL

T1 sequence (Q9NZQ7 19-290): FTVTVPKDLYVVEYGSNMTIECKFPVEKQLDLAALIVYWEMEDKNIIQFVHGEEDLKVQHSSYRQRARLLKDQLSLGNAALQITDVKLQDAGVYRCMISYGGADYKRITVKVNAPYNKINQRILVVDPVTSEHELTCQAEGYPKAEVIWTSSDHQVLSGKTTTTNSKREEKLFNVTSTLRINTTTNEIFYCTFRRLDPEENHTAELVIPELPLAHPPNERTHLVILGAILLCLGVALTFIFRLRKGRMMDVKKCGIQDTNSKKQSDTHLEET

- binding result [5]: binds
B2: hPD-1 MAB-2 VH1 + T77S, K83R and T84A (antibody, V domains shown)
VH: EVQLVESGGGLVQPGGSLRLSCAASGFTFSSYTMSWVRQAPGKGLEWVAYISIGGGTTYYPDTVKGRFTISRDNAKNSLYLQMNSLRAEDTAVYYCARQGLPYYFDYWGQGTLVTVSS
VL: DIQMTQSPSSLSASVGDRVTITCKASQDVNTAVAWYQQKPGKAPKLLIYWASTRHTGVPSRFSGSGSGTDFTLTISSLQPEDFATYYCQQHYNTPLTFGQGTKVEIK
notes: also called hPD-L1 MAB-2 VH2; hPD-L1 MAB-2(2.1)

- binding result [5]: binds
B3: hPD-1 MAB-2 VH1 + K83R and T84A (antibody, V domains shown)
VH: EVQLVESGGGLVQPGGSLRLSCAASGFTFSSYTMSWVRQAPGKGLEWVAYISIGGGTTYYPDTVKGRFTISRDNAKNTLYLQMNSLRAEDTAVYYCARQGLPYYFDYWGQGTLVTVSS
VL: DIQMTQSPSSLSASVGDRVTITCKASQDVNTAVAWYQQKPGKAPKLLIYWASTRHTGVPSRFSGSGSGTDFTLTISSLQPEDFATYYCQQHYNTPLTFGQGTKVEIK
notes: Deimmunization variant of hPD-L1 MAB-2(1.1)

- EC50 (read off the curve) [6]: ~0.2 µg/mL
- EC50 (read off the curve) [7]: ~0.2 µg/mL
- EC50 (read off the curve) [8]: ~0.01 µg/mL
B4: hPD-L1 MAB-2F (antibody) (antibody, V domains shown)
VH: EVQLVESGGGLVQPGGSLRLSCAASGFTFSSYTMSWVRQAPGKGLEWVAYISIKGGTTYYPDTVKGRFTISRDNAKNTLYLQMNSLKTEDTAVYYCARQGLPYYGDYWGQGTLVTVSS
VL: DIQMTQSPSSLSASVGDRVTITCKASQDVNEAVAWYQQKPGKAPKLLIYWASTRHTGVPSRFSGSGSGTDFTLTISSLQPEDFATYYCQQHYNTPLTFGQGTKVEIK

- binding result [5]: binds
B5: hPD-1 MAB-2 VH1 + T77S (antibody, V domains shown)
VH: EVQLVESGGGLVQPGGSLRLSCAASGFTFSSYTMSWVRQAPGKGLEWVAYISIGGGTTYYPDTVKGRFTISRDNAKNSLYLQMNSLKTEDTAVYYCARQGLPYYFDYWGQGTLVTVSS
VL: DIQMTQSPSSLSASVGDRVTITCKASQDVNTAVAWYQQKPGKAPKLLIYWASTRHTGVPSRFSGSGSGTDFTLTISSLQPEDFATYYCQQHYNTPLTFGQGTKVEIK
notes: as for B3

The remaining lines, values behind:

B1: hPD-L1 MAB-2(1.1) (antibody, V domains shown)
VH: EVQLVESGGGLVQPGGSLRLSCAASGFTFSSYTMSWVRQAPGKGLEWVAYISIGGGTTYYPDTVKGRFTISRDNAKNTLYLQMNSLKTEDTAVYYCARQGLPYYFDYWGQGTLVTVSS
VL: DIQMTQSPSSLSASVGDRVTITCKASQDVNTAVAWYQQKPGKAPKLLIYWASTRHTGVPSRFSGSGSGTDFTLTISSLQPEDFATYYCQQHYNTPLTFGQGTKVEIK
notes: Humanized anti-PD-L1 antibody; also called hPD-1 MAB-2(1.1); hPD-1 MAB-2 VH1
- EC50 (read off the curve) [1]: ~0.04 µg/mL
- EC50 (read off the curve) [2]: ~0.07 µg/mL
- EC50 (read off the curve) [3]: ~0.03 µg/mL
- EC50 (read off the curve) [4]: ~0.005 µg/mL

B6: TRIDENT-A5 (bispecific antibody, human IgG1, kappa, L234A L235A)
chain 1: EIVMTQSPATLSLSPGERATLSCRASQSVSSNYLSWYQQKPGQAPRLLIYGASTRATGIPARFSGSGSGTDFTLTISSLQPEDFAVYYCQQDYDLPWTFGQGTKVEIKGGGSGGGGQVQLQESGPGLVKPSETLSLTCTVSGGSISSYYWSWIRQPPGKGLEWIGRIYTSGSTNYNPSLKSRVTMSVDTSKNQFSLKLSSVTAADTAVYYCARDGWYDEDYNYYGMDVWGQGTTVTVSSGGCGGGEVAALEKEVAALEKEVAALEKEVAALEKGGGDKTHTCPPCPAPEAAGGPSVFLFPPKPKDTLYITREPEVTCVVVDVSHEDPEVKFNWYVDGVEVHNAKTKPREEQYNSTYRVVSVLTVLHQDWLNGKEYKCKVSNKALPAPIEKTISKAKGQPREPQVYTLPPSREEMTKNQVSLWCLVKGFYPSDIAVEWESNGQPENNYKTTPPVLDSDGSFFLYSKLTVDKSRWQQGNVFSCSVMHEALHNHYTQKSLSLSPGK
chain 2: EIVMTQSPATLSLSPGERATLSCRASQSVSSNYLSWYQQKPGQAPRLLIYGASTRATGIPARFSGSGSGTDFTLTISSLQPEDFAVYYCQQDYDLPWTFGQGTKVEIKGGGSGGGGQVQLQESGPGLVKPSETLSLTCTVSGGSISSYYWSWIRQPPGKGLEWIGRIYTSGSTNYNPSLKSRVTMSVDTSKNQFSLKLSSVTAADTAVYYCARDGWYDEDYNYYGMDVWGQGTTVTVSSGGCGGGKVAALKEKVAALKEKVAALKEKVAALKE
heavy: EVQLVESGGGLVQPGGSLRLSCAASGFTFSSYTMSWVRQAPGKGLEWVAYISIKGGTTYYPDTVKGRFTISRDNAKNSLYLQMNSLRAEDTAVYYCARQGLPYYGDYWGQGTLVTVSSASTKGPSVFPLAPSSKSTSGGTAALGCLVKDYFPEPVTVSWNSGALTSGVHTFPAVLQSSGLYSLSSVVTVPSSSLGTQTYICNVNHKPSNTKVDKRVEPKSCDKTHTCPPCPAPEAAGGPSVFLFPPKPKDTLYITREPEVTCVVVDVSHEDPEVKFNWYVDGVEVHNAKTKPREEQYNSTYRVVSVLTVLHQDWLNGKEYKCKVSNKALPAPIEKTISKAKGQPREPQVYTLPPSREEMTKNQVSLSCAVKGFYPSDIAVEWESNGQPENNYKTTPPVLDSDGSFFLVSKLTVDKSRWQQGNVFSCSVMHEALHNRYTQKSLSLSPGK
light: DIQMTQSPSSLSASVGDRVTITCKASQDVNEAVAWYQQKPGKAPKLLIYWASTRHTGVPSRFSGSGSGTDFTLTISSLQPEDFATYYCQQHYNTPLTFGQGTKVEIKRTVAAPSVFIFPPSDEQLKSGTASVVCLLNNFYPREAKVQWKVDNALQSGNSQESVTEQDSKDSTYSLSSTLTLSKADYEKHKVYACEVTHQGLSSPVTKSFNRGEC
notes: Trivalent; two CD137 MAB-6(1.2) sites, one hPD-L1 MAB-2(3.2) site
- EC50 (read off the curve) [9]: ~0.03 µg/mL

B7: TRIDENT-A6 (bispecific antibody, human IgG1, kappa, L234A L235A)
chain 1: EIVMTQSPATLSLSPGERATLSCRASQSVSSNYLSWFQQKPGQAPRLLIYGASTRATGIPARFSGSGSGTDFTLTISSLQPEDFAVYYCQQDYDLPWTFGQGTKVEIKGGGSGGGGQVQLQESGPGLVKPSETLSLTCTVSGGSISSYYWSWIRQPPGKGLEWIGRIYTSGSTNYNPSLKSRVTMSVDTSKNQFSLKLSSVTAADTAVYYCARDGWYDEDYNYYGMDVWGQGTTVTVSSGGCGGGEVAALEKEVAALEKEVAALEKEVAALEKGGGDKTHTCPPCPAPEAAGGPSVFLFPPKPKDTLYITREPEVTCVVVDVSHEDPEVKFNWYVDGVEVHNAKTKPREEQYNSTYRVVSVLTVLHQDWLNGKEYKCKVSNKALPAPIEKTISKAKGQPREPQVYTLPPSREEMTKNQVSLWCLVKGFYPSDIAVEWESNGQPENNYKTTPPVLDSDGSFFLYSKLTVDKSRWQQGNVFSCSVMHEALHNHYTQKSLSLSPGK
chain 2: EIVMTQSPATLSLSPGERATLSCRASQSVSSNYLSWFQQKPGQAPRLLIYGASTRATGIPARFSGSGSGTDFTLTISSLQPEDFAVYYCQQDYDLPWTFGQGTKVEIKGGGSGGGGQVQLQESGPGLVKPSETLSLTCTVSGGSISSYYWSWIRQPPGKGLEWIGRIYTSGSTNYNPSLKSRVTMSVDTSKNQFSLKLSSVTAADTAVYYCARDGWYDEDYNYYGMDVWGQGTTVTVSSGGCGGGKVAALKEKVAALKEKVAALKEKVAALKE
heavy: EVQLVESGGGLVQPGGSLRLSCAASGFTFSSYTMSWVRQAPGKGLEWVAYISIKGGTTYYPDTVKGRFTISRDNAKNSLYLQMNSLRAEDTAVYYCARQGLPYYGDYWGQGTLVTVSSASTKGPSVFPLAPSSKSTSGGTAALGCLVKDYFPEPVTVSWNSGALTSGVHTFPAVLQSSGLYSLSSVVTVPSSSLGTQTYICNVNHKPSNTKVDKRVEPKSCDKTHTCPPCPAPEAAGGPSVFLFPPKPKDTLYITREPEVTCVVVDVSHEDPEVKFNWYVDGVEVHNAKTKPREEQYNSTYRVVSVLTVLHQDWLNGKEYKCKVSNKALPAPIEKTISKAKGQPREPQVYTLPPSREEMTKNQVSLSCAVKGFYPSDIAVEWESNGQPENNYKTTPPVLDSDGSFFLVSKLTVDKSRWQQGNVFSCSVMHEALHNRYTQKSLSLSPGK
light: DIQMTQSPSSLSASVGDRVTITCKASQDVNEAVAWYQQKPGKAPKLLIYWASTRHTGVPSRFSGSGSGTDFTLTISSLQPEDFATYYCQQHYNTPLTFGQGTKVEIKRTVAAPSVFIFPPSDEQLKSGTASVVCLLNNFYPREAKVQWKVDNALQSGNSQESVTEQDSKDSTYSLSSTLTLSKADYEKHKVYACEVTHQGLSSPVTKSFNRGEC
notes: Trivalent; two CD137 MAB-6(1.3) sites, one hPD-L1 MAB-2(3.2) site
- EC50 (read off the curve) [7]: ~0.5 µg/mL
- EC50 (read off the curve) [9]: ~0.01 µg/mL
